Results published in PMC12666738.

Key:
[1] = molecular target: mRFP-tagged CASK I672V (human) (UniProt O14936); test: co-IP; HEK293T cells cotransfected, lysed in RIPA buffer 24 h after transfection; mRFP-tagged CASK precipitated with magnetic RFP-Trap beads, 2 h at 4°C, five washes in RIPA; Western blot
[2] = molecular target: T1, GST-tagged C-terminal domain of CNTNAP2, Q9UHC6; test: pull-down; conditions: chain shown with the change; n = 4; His6-signals normalized to GST-signals derived from the same blot; parent: est. 3.1; read off a plot
T1 chain: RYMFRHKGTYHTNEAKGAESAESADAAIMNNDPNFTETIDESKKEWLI

[3] = molecular target: T2, GST-tagged C-terminal domain of Nrxn1β, Q63373; test: pull-down; conditions: chain shown with the change; n = 4; His6-signals normalized to GST-signals derived from the same blot; parent: est. 2.9; read off a plot
T2 chain: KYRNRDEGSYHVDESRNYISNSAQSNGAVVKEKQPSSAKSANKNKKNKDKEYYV

[4] = molecular target: T3, GST-tagged C-terminal domain of SALM1, Q9ULH4; test: pull-down; conditions: chain shown with the change; n = 4; His6-signals normalized to GST-signals derived from the same blot; parent: est. 0.85; read off a plot
T3 chain: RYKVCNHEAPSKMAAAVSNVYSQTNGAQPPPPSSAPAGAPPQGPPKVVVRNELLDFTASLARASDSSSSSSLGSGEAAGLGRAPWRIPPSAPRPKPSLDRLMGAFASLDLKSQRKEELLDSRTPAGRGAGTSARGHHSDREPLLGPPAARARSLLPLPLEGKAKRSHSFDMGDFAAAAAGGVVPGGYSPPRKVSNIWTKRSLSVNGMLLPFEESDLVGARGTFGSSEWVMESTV

Molecule | reduction of bound Nrxn1β against CASK WT [1] | response [2] | response [3] | response [4]
HA-tagged Neurexin-1β (from UniProt Q63373 47-468) (natural protein) | 50% | – | – | –
His6-SUMO-tagged CASK PSG supramodule WT, O14936-2 Y723C (protein) MADDDVLFEDVYELCEVIGKGPFSVVRRCINRETGQQFAVKIVDVAKFTSSPGLSTEDLKREASICHMLKHPHIVELLETYSSDGMLYMVFEFMDGADLCFEIVKRADAGFVYSEAVASHYMRQILEALRYCHDNNIIHRDVKPHCVLLASKENSAPVKLGGFGVAIQLGESGLVAGGRVGTPHFMAPEVVKREPYGKPVDVWGCGVILFILLSGCLPFYGTKERLFEGIIKGKYKMNPRQWSHISESAKDLVRRMLMLDPAERITVYEALNHPWLKERDRYAYKIHLPETVEQLRKFNARRKLKGAVLAAVSSHKFNSFYGDPPEELPDFSEDPTSSGLLAAERAVSQVLDSLEEIHALTDCSEKDLDFLHSVFQDQHLHTLLDLYDKINTKSSPQIRNPPSDAVQRAKEVLEEISCYPENNDAKELKRILTQPHFMALLQTHDVVAHEVYSDEALRVTPPPTSPYLNGDSPESANGDMDMENVTRVRLVQFQKNTDEPMGITLKMNELNHCIVARIMHGGMIHRQGTLHVGDEIREINGISVANQTVEQLQKMLREMRGSITFKIVPSYRTQSSSCERDSPSTSRQSPANGHSSTNNSVSDLPSTTQPKGRQIYVRAQFEYDPAKDDLIPCKEAGIRFRVGDIIQIISKDDHNWWQGKLENSKNGTAGLIPSPELQEWRVACIAMEKTKQEQQASCTWFGKKKKQYKDKYLAKHNADLVTCEEVVKLPAFKRKTLVLLGAHGVGRRHIKNTLITKHPDRFAYPIPHTTRPPKKDEENGKNYYFVSHDQMMQDISNNEYLEYGSHEDAMYGTKLETIRKIHEQGLIAILDVEPQALKVLRTAEFAPFVVFIAAPTITPGLNEDESLQRLQKESDILQRTYAHYFDLTIINNEIDETIRHLEEAVELVCTAPQWVPVSWVY | – | 0.45 | 0.9 | 0.15
His6-SUMO-tagged CASK PSG supramodule WT, O14936-2 P673L (protein) MADDDVLFEDVYELCEVIGKGPFSVVRRCINRETGQQFAVKIVDVAKFTSSPGLSTEDLKREASICHMLKHPHIVELLETYSSDGMLYMVFEFMDGADLCFEIVKRADAGFVYSEAVASHYMRQILEALRYCHDNNIIHRDVKPHCVLLASKENSAPVKLGGFGVAIQLGESGLVAGGRVGTPHFMAPEVVKREPYGKPVDVWGCGVILFILLSGCLPFYGTKERLFEGIIKGKYKMNPRQWSHISESAKDLVRRMLMLDPAERITVYEALNHPWLKERDRYAYKIHLPETVEQLRKFNARRKLKGAVLAAVSSHKFNSFYGDPPEELPDFSEDPTSSGLLAAERAVSQVLDSLEEIHALTDCSEKDLDFLHSVFQDQHLHTLLDLYDKINTKSSPQIRNPPSDAVQRAKEVLEEISCYPENNDAKELKRILTQPHFMALLQTHDVVAHEVYSDEALRVTPPPTSPYLNGDSPESANGDMDMENVTRVRLVQFQKNTDEPMGITLKMNELNHCIVARIMHGGMIHRQGTLHVGDEIREINGISVANQTVEQLQKMLREMRGSITFKIVPSYRTQSSSCERDSPSTSRQSPANGHSSTNNSVSDLPSTTQPKGRQIYVRAQFEYDPAKDDLIPCKEAGIRFRVGDIIQIISKDDHNWWQGKLENSKNGTAGLILSPELQEWRVACIAMEKTKQEQQASCTWFGKKKKQYKDKYLAKHNADLVTYEEVVKLPAFKRKTLVLLGAHGVGRRHIKNTLITKHPDRFAYPIPHTTRPPKKDEENGKNYYFVSHDQMMQDISNNEYLEYGSHEDAMYGTKLETIRKIHEQGLIAILDVEPQALKVLRTAEFAPFVVFIAAPTITPGLNEDESLQRLQKESDILQRTYAHYFDLTIINNEIDETIRHLEEAVELVCTAPQWVPVSWVY | – | 0.45 | 1 | 0.15
His6-SUMO-tagged CASK PSG supramodule WT, O14936-2 G521V (protein) MADDDVLFEDVYELCEVIGKGPFSVVRRCINRETGQQFAVKIVDVAKFTSSPGLSTEDLKREASICHMLKHPHIVELLETYSSDGMLYMVFEFMDGADLCFEIVKRADAGFVYSEAVASHYMRQILEALRYCHDNNIIHRDVKPHCVLLASKENSAPVKLGGFGVAIQLGESGLVAGGRVGTPHFMAPEVVKREPYGKPVDVWGCGVILFILLSGCLPFYGTKERLFEGIIKGKYKMNPRQWSHISESAKDLVRRMLMLDPAERITVYEALNHPWLKERDRYAYKIHLPETVEQLRKFNARRKLKGAVLAAVSSHKFNSFYGDPPEELPDFSEDPTSSGLLAAERAVSQVLDSLEEIHALTDCSEKDLDFLHSVFQDQHLHTLLDLYDKINTKSSPQIRNPPSDAVQRAKEVLEEISCYPENNDAKELKRILTQPHFMALLQTHDVVAHEVYSDEALRVTPPPTSPYLNGDSPESANGDMDMENVTRVRLVQFQKNTDEPMGITLKMNELNHCIVARIMHVGMIHRQGTLHVGDEIREINGISVANQTVEQLQKMLREMRGSITFKIVPSYRTQSSSCERDSPSTSRQSPANGHSSTNNSVSDLPSTTQPKGRQIYVRAQFEYDPAKDDLIPCKEAGIRFRVGDIIQIISKDDHNWWQGKLENSKNGTAGLIPSPELQEWRVACIAMEKTKQEQQASCTWFGKKKKQYKDKYLAKHNAVFDQLDLVTYEEVVKLPAFKRKTLVLLGAHGVGRRHIKNTLITKHPDRFAYPIPHTTRPPKKDEENGKNYYFVSHDQMMQDISNNEYLEYGSHEDAMYGTKLETIRKIHEQGLIAILDVEPQALKVLRTAEFAPFVVFIAAPTITPGLNEDESLQRLQKESDILQRTYAHYFDLTIINNEIDETIRHLEEAVELVCTAPQWVPVSWVY | – | 1.5 | 0.9 | 0.7
